The results in this text go back to PMC6086726.

The assay addresses Type I-F Csy surveillance complex of Pseudomonas aeruginosa PA14 (Csy1-4 with crRNA) (Pseudomonas aeruginosa PA14) (UniProt Q02ML9). Put plainly: SPR.

A word on the Kd: it is the free concentration of one partner at which half of the binding sites on the other are occupied at equilibrium, for simple one-to-one binding. Read a low Kd as higher affinity. For the substance “AcrIF4 (gene 37 from phage JBD26) (natural protein)”, the Kd was 400 nM.
